Read-outs that look alike come from different tables or passages of the source.
Legend:
Assay in all cases: cell-based or functional assay
[1] = molecular target: T1, CLL1 on CLL1-expressing cells (U937, HL60) (human, UniProt Q5QGZ9 1-265)
T1 sequence (looked up): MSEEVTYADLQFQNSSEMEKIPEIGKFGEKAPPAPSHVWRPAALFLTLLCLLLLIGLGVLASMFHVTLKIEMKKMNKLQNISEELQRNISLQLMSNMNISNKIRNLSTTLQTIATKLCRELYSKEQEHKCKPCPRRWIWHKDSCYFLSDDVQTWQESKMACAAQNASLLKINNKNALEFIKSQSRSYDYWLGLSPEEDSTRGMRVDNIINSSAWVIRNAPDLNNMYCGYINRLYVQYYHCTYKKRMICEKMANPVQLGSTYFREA

[2] = molecular target: T1, CLL1 on CLL1-expressing cells (U937, …); remark: listed apart in the source
[3] = molecular target: T1, CLL1 on CLL1-expressing cells (U937, …); remark: listed apart in the source
[4] = molecular target: T1, CLL1 on CLL1-expressing cells (U937, …); remark: listed apart in the source
[5] = molecular target: T1, CLL1 on CLL1-expressing cells (U937, …); remark: listed apart in the source
[6] = molecular target: T2, B7H3 on B7H3-expressing cells (NCI-H358, NCI-H1048) (human, UniProt Q5ZPR3 29-534)
T2 sequence (looked up): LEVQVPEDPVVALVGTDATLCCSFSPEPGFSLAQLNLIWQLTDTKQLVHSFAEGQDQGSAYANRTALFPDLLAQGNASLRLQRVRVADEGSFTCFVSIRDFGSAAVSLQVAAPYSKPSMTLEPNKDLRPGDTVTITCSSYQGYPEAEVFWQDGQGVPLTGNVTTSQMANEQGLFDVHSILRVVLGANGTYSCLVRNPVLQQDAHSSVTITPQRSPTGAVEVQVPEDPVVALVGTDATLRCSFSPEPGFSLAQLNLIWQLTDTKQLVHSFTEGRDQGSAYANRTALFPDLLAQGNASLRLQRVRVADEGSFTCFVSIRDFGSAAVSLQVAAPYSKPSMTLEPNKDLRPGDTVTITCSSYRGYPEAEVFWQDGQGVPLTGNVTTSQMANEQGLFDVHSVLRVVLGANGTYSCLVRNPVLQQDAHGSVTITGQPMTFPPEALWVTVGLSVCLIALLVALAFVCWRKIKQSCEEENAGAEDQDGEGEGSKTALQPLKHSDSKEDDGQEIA

B1: ADC3-A (antibody, human IgG1, kappa, V domains shown)
VH: EVQLVQSGAEVKKPGASVKVSCKASGYSFTDYYMHWVRQAPGQGLEWIGRINPYAGAAFYSQNFKDRVTLTVDTSTSTAYLELSSLRSEDTAVYYCAIERGADLEGYAMDYWGQGTLVTVSS
VL: DIQMTQSPSSLSASVGDRVTITCRASQSVSTSSYNYMHWYQQKPGKPPKLLIKYASNLESGVPSRFSGSGSGTDFTLTISSLQPEDFATYYCQHSWEIPLTFGQGTKVEIKR
modifications: conjugator-linker-payload on cysteine thiols after TCEP reduction; positions not given
EC50 (nM) direct cellular killing, HL60 [1]: 4.8 nM | EC50 (nM) direct cellular killing, HL60 [2]: 6.3 nM | EC50 (nM) direct cellular killing, U937 [2]: 0.8 nM | EC50 (nM) direct cellular killing, HL60 [3]: 1.4 nM | EC50 (nM) direct cellular killing, U937 [3]: 0.7 nM | EC50 (nM) direct cellular killing, HL60 [4]: 10.9 nM | EC50 (nM) direct cellular killing, U937 [4]: 0.7 nM | EC50 (nM) direct cellular killing, HL60 [5]: 6.5 nM

B2: ADC3-6 (antibody, human IgG1, kappa, V domains shown)
VH: EVQLVQSGAEVKKPGASVKVSCKASGYSFTDYYMHWVRQAPGQGLEWIGRINPYAGAAFYSQNFKDRVTLTVDTSTSTAYLELSSLRSEDTAVYYCAIERGADLEGYAMDYWGQGTLVTVSS
VL: DIQMTQSPSSLSASVGDRVTITCRASQSVSTSSYNYMHWYQQKPGKPPKLLIKYASNLESGVPSRFSGSGSGTDFTLTISSLQPEDFATYYCQHSWEIPLTFGQGTKVEIKR
modifications: conjugator-linker-payload on cysteine thiols after TCEP reduction; positions not given
EC50 (nM) direct cellular killing, HL60 [5]: 0.4 nM | EC50 (nM) direct cellular killing, U937 [5]: 0.6 nM

B3: ADC3-15 (antibody, human IgG1, kappa, V domains shown)
VH: EVQLVQSGAEVKKPGASVKVSCKASGYSFTDYYMHWVRQAPGQGLEWIGRINPYAGAAFYSQNFKDRVTLTVDTSTSTAYLELSSLRSEDTAVYYCAIERGADLEGYAMDYWGQGTLVTVSS
VL: DIQMTQSPSSLSASVGDRVTITCRASQSVSTSSYNYMHWYQQKPGKPPKLLIKYASNLESGVPSRFSGSGSGTDFTLTISSLQPEDFATYYCQHSWEIPLTFGQGTKVEIKR
modifications: conjugator-linker-payload on cysteine thiols after TCEP reduction; positions not given
EC50 (nM) direct cellular killing, HL60 [4]: 6.5 nM | EC50 (nM) direct cellular killing, U937 [4]: 0.3 nM

B4: ADC3-B (antibody, human IgG1, kappa, V domains shown)
VH: QVQLVQSGAEVKKPGSSVKVSCKASGYTFTNYVMHWVRQAPGQGLEWMGYINPYNDDVKYNEKFKGRVTITADESTSTAYMELSSLRSEDTAVYYCARWGYYGSPLYYFDYWGQGTLVTVSS
VL: EIVLTQSPATLSLSPGERATLSCRASSRLIYMHWYQQKPGQAPRPLIYATSNLASGIPARFSGSGSGTDFTLTISSLEPEDFAVYYCQQWNSNPPTFGQGTKVEIKR
modifications: conjugator-linker-payload on cysteine thiols after TCEP reduction; positions not given
EC50 (nM) direct cellular killing, NCI-H358 [6]: 0.1 nM | EC50 (nM) direct cellular killing, NCI-H1048 [6]: 0.2 nM
